Results published in the RNAGym collection of RNA variant scans (doi:10.1073/pnas.2313332121).
Fewer inactive variants are shown than the library holds.

B1: TPR 5TU (parent)
chain: GGAUCUUCUCGAUCUAACAAAAAAGACAAAUCUGCCACAAAGCUUGAGAGCAUCUUCGGAUGCAGAGGCGGCAGCCUUCGGUGGCGCGAUAGCGCCAACGUUCUCAACUAUGACACGCAAAACGCGUGCUCCGUUGAAUGGAGUUUAUCAUG

Variants of: B1
Assay: polymerase ribozyme fitness, log enrichment relative to wild type (log ratio); higher = more active; in vitro selection for triplet polymerase activity
Procedure, shortened: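 Libraries of mutants in each subunit of a heterodimeric triplet polymerase ribozyme were generated by PCR and transcribed. In triplicate, each went through one in vitro selection round: annealing with biotinylated primer, partner subunit and triplets; frozen incubation at −7 °C; gel excision of extended constructs; streptavidin-bead capture; RT-PCR. Fitness, taken from Illumina sequencing of input and output libraries, is the logarithm of a genotype's enrichment over wild-type enrichment, averaged across replicates with inverse-variance weights. The logarithm is base 2, and genotypes needed ≥10 input reads and ≥1 read per output to be kept.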
In the case of G62U G92C C96A A98U, the “polymerase ribozyme fitness (log ratio)” value is reported as -2.71. In the case of U61G C125A, the “polymerase ribozyme fitness (log ratio)” value is reported as -1.26. In the case of C69G G74U A89U A98U, the “polymerase ribozyme fitness (log ratio)” value is reported as -2.01. For U61A C105G A121U, the “polymerase ribozyme fitness (log ratio)” value was at most -4.2. For G70A U144C, the “polymerase ribozyme fitness (log ratio)” value was -3.66. In the case of G65C C93A A97U C108U U109C, the “polymerase ribozyme fitness (log ratio)” value is reported as at most -4.2. For G68A C95U, the “polymerase ribozyme fitness (log ratio)” value was -3.77. In the case of G62U G68C A98G G124C G141A, the “polymerase ribozyme fitness (log ratio)” value is reported as at most -4.2. With G62C G74A G83A C125A U139G G140A the “polymerase ribozyme fitness (log ratio)” value was at most -4.2. With G68A A98U the “polymerase ribozyme fitness (log ratio)” value was -3.61. With A64C G84A G128A the “polymerase ribozyme fitness (log ratio)” value was at most -4.2. With G71A G92U the “polymerase ribozyme fitness (log ratio)” value was -2.6. In the case of A66C A106G U144G, the “polymerase ribozyme fitness (log ratio)” value is reported as at most -4.2. For A64U G84U, the “polymerase ribozyme fitness (log ratio)” value was at most -4.2. In the case of C72U U146G, the “polymerase ribozyme fitness (log ratio)” value is reported as -0.793. For A73G G84A, the “polymerase ribozyme fitness (log ratio)” value was -0.268. In the case of U61G G67A G68U C87A A107U G126C C149G, the “polymerase ribozyme fitness (log ratio)” value is reported as at most -4.2. With C63G C93A the “polymerase ribozyme fitness (log ratio)” value was -1.77. With C69G C108U U148A the “polymerase ribozyme fitness (log ratio)” value was at most -4.2. For U61A C87U A147C, the “polymerase ribozyme fitness (log ratio)” value was -3.49. With G62C G67C U134C A147G the “polymerase ribozyme fitness (log ratio)” value was at most -4.2. For G71C G83A G117C C129A, the “polymerase ribozyme fitness (log ratio)” value was at most -4.2. In the case of G68U G71U G86U A97U, the “polymerase ribozyme fitness (log ratio)” value is reported as at most -4.2. In the case of A73C C96A, the “polymerase ribozyme fitness (log ratio)” value is reported as -3.14. For C63G C87U C129G U139C G143U, the “polymerase ribozyme fitness (log ratio)” value was at most -4.2. For U61G C69U C93G G143A, the “polymerase ribozyme fitness (log ratio)” value was at most -4.2. In the case of C69U U78G C96G U134A U135C, the “polymerase ribozyme fitness (log ratio)” value is reported as at most -4.2. For A64U C93U A138G, the “polymerase ribozyme fitness (log ratio)” value was at most -4.2. With G67C C93A G133A U151G the “polymerase ribozyme fitness (log ratio)” value was at most -4.2. In the case of U61A G83A, the “polymerase ribozyme fitness (log ratio)” value is reported as -2.9. With C63U G83C C85G C105A A110C the “polymerase ribozyme fitness (log ratio)” value was at most -4.2. In the case of U61G C75U G92A C149A, the “polymerase ribozyme fitness (log ratio)” value is reported as at most -4.2. In the case of A73C A106U A110C, the “polymerase ribozyme fitness (log ratio)” value is reported as at most -4.2. For C72U U77C C118G, the “polymerase ribozyme fitness (log ratio)” value was at most -4.2. For G70A C87U, the “polymerase ribozyme fitness (log ratio)” value was -3.05. In the case of A73G G94U A106G, the “polymerase ribozyme fitness (log ratio)” value is reported as -0.312. In the case of G62C C93U, the “polymerase ribozyme fitness (log ratio)” value is reported as -3.83. For C69U A115U C123U, the “polymerase ribozyme fitness (log ratio)” value was -1.62. With A64U C79U C87A A137G the “polymerase ribozyme fitness (log ratio)” value was at most -4.2. In the case of A73G G92C C96A, the “polymerase ribozyme fitness (log ratio)” value is reported as -2.51. For C69A G84U A137G, the “polymerase ribozyme fitness (log ratio)” value was -3.58. In the case of A73G C96G, the “polymerase ribozyme fitness (log ratio)” value is reported as -0.616. With G68A G74A U90C the “polymerase ribozyme fitness (log ratio)” value was at most -4.2. For G71U C93U, the “polymerase ribozyme fitness (log ratio)” value was -3.57. In the case of A73U A97U A115G, the “polymerase ribozyme fitness (log ratio)” value is reported as -3.45. In the case of C63U G83C C96U C105G G117U, the “polymerase ribozyme fitness (log ratio)” value is reported as -2.06. For G62A C75G C96A, the “polymerase ribozyme fitness (log ratio)” value was at most -4.2. For G68U C76U, the “polymerase ribozyme fitness (log ratio)” value was at most -4.2. For G62C G70A C79G G86C A142C C149U, the “polymerase ribozyme fitness (log ratio)” value was at most -4.2. With C69G G71U G140A the “polymerase ribozyme fitness (log ratio)” value was at most -4.2. For A64U C93G C114G, the “polymerase ribozyme fitness (log ratio)” value was at most -4.2. With G70C G81A C96A C108U A120G A138C the “polymerase ribozyme fitness (log ratio)” value was at most -4.2. For U61G G88C, the “polymerase ribozyme fitness (log ratio)” value was at most -4.2. In the case of G62A G84A, the “polymerase ribozyme fitness (log ratio)” value is reported as -2.31. For G71C G86U A91C G133A, the “polymerase ribozyme fitness (log ratio)” value was at most -4.2. In the case of U61A A150G, the “polymerase ribozyme fitness (log ratio)” value is reported as -1.15. With G70A C75A C85G G140C the “polymerase ribozyme fitness (log ratio)” value was at most -4.2. For U61A C85U A89U C118A C149U, the “polymerase ribozyme fitness (log ratio)” value was -3.61. For G70C G94A, the “polymerase ribozyme fitness (log ratio)” value was -3.61. For U61A A106U, the “polymerase ribozyme fitness (log ratio)” value was -2.41. In the case of C69U A97G G141A, the “polymerase ribozyme fitness (log ratio)” value is reported as -0.875. In the case of G70A G86U G88U C99G C105G C114G, the “polymerase ribozyme fitness (log ratio)” value is reported as at most -4.2. For G70A G86A U90G C93G A110U C114U U134A, the “polymerase ribozyme fitness (log ratio)” value was at most -4.2. For C69A A97G A98U U104A G124A, the “polymerase ribozyme fitness (log ratio)” value was -2.14. For G70C A98U, the “polymerase ribozyme fitness (log ratio)” value was -2.78. With G67U U146A the “polymerase ribozyme fitness (log ratio)” value was -2.89. With U61A C103U the “polymerase ribozyme fitness (log ratio)” value was -1.31. With G68C A97U U102A the “polymerase ribozyme fitness (log ratio)” value was at most -4.2. For A64G C85U, the “polymerase ribozyme fitness (log ratio)” value was -3.21. With A64C A66C C125U the “polymerase ribozyme fitness (log ratio)” value was at most -4.2. With A73G G88A G124C the “polymerase ribozyme fitness (log ratio)” value was at most -4.2. For U61G G124C A147U, the “polymerase ribozyme fitness (log ratio)” value was -1.99. With G62C C85G the “polymerase ribozyme fitness (log ratio)” value was -3.23. For G62A G65A A66C U77C U135C U145G, the “polymerase ribozyme fitness (log ratio)” value was at most -4.2. With G67A C72A A142U A150G the “polymerase ribozyme fitness (log ratio)” value was at most -4.2. With G65A C131U the “polymerase ribozyme fitness (log ratio)” value was -0.0454. For U61A C69A G86U G117C A119G, the “polymerase ribozyme fitness (log ratio)” value was -3.92. For C63G G70A, the “polymerase ribozyme fitness (log ratio)” value was -3.15. With G62A C93U C118U G143U the “polymerase ribozyme fitness (log ratio)” value was -3.81. For G67C G68C C118U A120G, the “polymerase ribozyme fitness (log ratio)” value was at most -4.2. With A66C C96A the “polymerase ribozyme fitness (log ratio)” value was at most -4.2. In the case of G70C G86C, the “polymerase ribozyme fitness (log ratio)” value is reported as at most -4.2. For A73G A120G, the “polymerase ribozyme fitness (log ratio)” value was 0.0734. For A73G C93U, the “polymerase ribozyme fitness (log ratio)” value was -1.28.
